Key:
[1] = target: 5 A SSB escape mutant E38K (phage 5 A (T7-like podovirus)); assay: native gel or EMSA; native stoichiometry of wild-type 5 A SSB and escape mutants in the absence of DNA; each protein allowed to oligomerize for 1 hour; non-denaturing 4-20% Tris-glycine gel, 4 °C; part of the wild-type sample melted at 95 °C for the monomeric state
[2] = target: 5 A SSB escape mutant E49A (phage 5 A (T7-like podovirus)); assay: as above
[3] = target: 5 A SSB escape mutant E201K (phage 5 A (T7-like podovirus)); assay: as above
[4] = target: Hna (helicase-nuclease abortive infection), wild type, Sinorhizobium meliloti (Sinorhizobium meliloti)
[5] = target: Hna with a C-terminal GFP tag; assay: fluorescence anisotropy; conditions: read off a plot
[6] = target: phage-encoded single-stranded DNA-binding protein of phage 5 A (5 A SSB), wild type (phage 5 A (T7-like podovirus)); assay: native gel or EMSA; native stoichiometry of wild-type 5 A SSB and escape mutants in the absence of DNA; each protein allowed to oligomerize for 1 hour; non-denaturing 4-20% Tris-glycine gel, 4 °C; part of the wild-type sample melted at 95 °C for the monomeric state
[7] = target: Hna (helicase-nuclease abortive infection), wild type, Sinorhizobium meliloti; assay: fluorescence anisotropy competition; conditions: in the presence of ATP; cold SSB added to the saturated Hna/GFP-SSB heterodimer; value read at the highest cold SSB concentration (about 2e3 nM); lower …; parent: est. 75; read off a plot
[8] = saturating GFP-Hna homodimer, value read at the highest SSB concentration (about 2e4 nM), starting anisotropy about 100-110 mA, lower anisotropy = more …, parent: est. 22

**Q.** Which stoichiometry N [1] does the source give for “5 A SSB escape mutant E38K (natural protein)” here?
**A.** Its stoichiometry N is 4.

**Q.** With “5 A SSB escape mutant E49A (natural protein)” as the substance, how does the stoichiometry N [2] read?
**A.** Its stoichiometry N is 2.

**Q.** How did the stoichiometry N [3] turn out when “5 A SSB escape mutant E201K (natural protein)” was run?
**A.** The stoichiometry N was 4.

**Q.** “Hna (helicase-nuclease abortive infection), wild type, Sinorhizobium meliloti (enzyme)” was tested. Which ssDNA cleavage rate of the Hna dimer mutant (T30A/D31A/P34A) compared to wild-type Hna, capillary electrophoresis [4] did it give?
**A.** Its ssDNA cleavage rate of the Hna dimer mutant (T30A/D31A/P34A) compared to wild-type Hna, capillary electrophoresis is greater than 10 fold.

**Q.** For “Hna (helicase-nuclease abortive infection), wild type, Sinorhizobium meliloti T30A; D31A; P34A”, which response ([5]; +ATP, GFP-Hna at fixed concentration, value is the plateau of the fitted curve at high cold Hna concentration, parent: est. 98) is on record?
**A.** Its response is 10 mA.

**Q.** With “phage-encoded single-stranded DNA-binding protein of phage 5 A (5 A SSB), wild type (natural protein)” as the substance, how does the stoichiometry N [6] read?
**A.** Its stoichiometry N is 2.

**Q.** “phage-encoded single-stranded DNA-binding protein of phage 5 A (5 A SSB), wild type E38K” was tested. Which response [5, 8] did it give?
**A.** The response was 99 mA.

**Q.** How did the response [5, 8] turn out when “phage-encoded single-stranded DNA-binding protein of phage 5 A (5 A SSB), wild type E49A” was run?
**A.** The response was 65 mA.

**Q.** For “phage-encoded single-stranded DNA-binding protein of phage 5 A (5 A SSB), wild type E201K”, which response [5, 8] is on record?
**A.** The response was 110 mA.

**Q.** And the response [7]?
**A.** Its response is 130 mA.

Reference: publication PMC13381803, “Phage-encoded factor stimulates DNA degradation by the Hna anti-phage defense system” (Nature Communications, 2026)
